Measurements taken from patent US11965039B2, “Compstatin analogues and their medical uses” (priority 2018, dated 2024).
Starred links: 1 amine or outer side, 2 acyl side, 3 side chain; linkers in the order of their positions; H or OH if unused. Positions of bridges follow the written chain, without caps; N, C: chain ends. Non-standard residues stand in square brackets, D forms with d. Groups on a side chain read outwards from the residue. *: point of attachment. Trp(1-Me) = Cn1cc(C[C@H](N)C(=O)O)c2ccccc21; C18 diacid = O=C(O)CCCCCCCCCCCCCCCCC(=O)*; γGlu = O=C(O)[C@H](CCC(=O)[*:2])N[*:1]; AEEA = NCCOCCOCC(=O)O; Sar = CNCC(=O)O

B1: Compound 121 (peptide)
peptide: Ac-SEYCI[Trp(1-Me)]QEW[Sar]EHRC[Sar]EK[γGlu]AK([AEEA-γGlu-AEEA-Gly-γGlu-C18 diacid])-NH2
modifications: disulfide 4-14
SMILES: CC[C@H](C)[C@@H]1NC(=O)[C@@H](NC(=O)[C@H](Cc2ccc(O)cc2)NC(=O)[C@H](CCC(=O)O)NC(=O)[C@H](CO)NC(C)=O)CSSC[C@@H](C(=O)N(C)CC(=O)N[C@@H](CCC(=O)O)C(=O)N[C@@H](CCCCN)C(=O)N[C@@H](CCC(=O)N[C@@H](C)C(=O)N[C@@H](CCCCNC(=O)COCCOCCNC(=O)CC[C@H](NC(=O)COCCOCCNC(=O)CNC(=O)CC[C@H](NC(=O)CCCCCCCCCCCCCCCCC(=O)O)C(=O)O)C(=O)O)C(N)=O)C(=O)O)NC(=O)[C@H](CCCNC(=N)N)NC(=O)[C@H](Cc2c[nH]cn2)NC(=O)[C@H](CCC(=O)O)NC(=O)CN(C)C(=O)[C@H](Cc2c[nH]c3ccccc23)NC(=O)[C@H](CCC(=O)O)NC(=O)[C@H](CCC(N)=O)NC(=O)[C@H](Cc2cn(C)c3ccccc23)NC1=O
B2: Compound 118 (peptide)
peptide: Ac-SEYCI[Trp(1-Me)]QDWGEHRC[Sar]EGAK([AEEA-γGlu-AEEA-Gly-γGlu-C18 diacid])-NH2
modifications: disulfide 4-14
SMILES: CC[C@H](C)[C@@H]1NC(=O)[C@@H](NC(=O)[C@H](Cc2ccc(O)cc2)NC(=O)[C@H](CCC(=O)O)NC(=O)[C@H](CO)NC(C)=O)CSSC[C@@H](C(=O)N(C)CC(=O)N[C@@H](CCC(=O)O)C(=O)NCC(=O)N[C@@H](C)C(=O)N[C@@H](CCCCNC(=O)COCCOCCNC(=O)CC[C@H](NC(=O)COCCOCCNC(=O)CNC(=O)CC[C@H](NC(=O)CCCCCCCCCCCCCCCCC(=O)O)C(=O)O)C(=O)O)C(N)=O)NC(=O)[C@H](CCCNC(=N)N)NC(=O)[C@H](Cc2c[nH]cn2)NC(=O)[C@H](CCC(=O)O)NC(=O)CNC(=O)[C@H](Cc2c[nH]c3ccccc23)NC(=O)[C@H](CC(=O)O)NC(=O)[C@H](CCC(N)=O)NC(=O)[C@H](Cc2cn(C)c3ccccc23)NC1=O
B3: Compound 122 (peptide)
peptide: Ac-SEYCI[Trp(1-Me)]QEWGEHRC[Sar]EGAK([AEEA-γGlu-AEEA-Gly-γGlu-C18 diacid])-NH2
modifications: disulfide 4-14
SMILES: CC[C@H](C)[C@@H]1NC(=O)[C@@H](NC(=O)[C@H](Cc2ccc(O)cc2)NC(=O)[C@H](CCC(=O)O)NC(=O)[C@H](CO)NC(C)=O)CSSC[C@@H](C(=O)N(C)CC(=O)N[C@@H](CCC(=O)O)C(=O)NCC(=O)N[C@@H](C)C(=O)N[C@@H](CCCCNC(=O)COCCOCCNC(=O)CC[C@H](NC(=O)COCCOCCNC(=O)CNC(=O)CC[C@H](NC(=O)CCCCCCCCCCCCCCCCC(=O)O)C(=O)O)C(=O)O)C(N)=O)NC(=O)[C@H](CCCNC(=N)N)NC(=O)[C@H](Cc2c[nH]cn2)NC(=O)[C@H](CCC(=O)O)NC(=O)CNC(=O)[C@H](Cc2c[nH]c3ccccc23)NC(=O)[C@H](CCC(=O)O)NC(=O)[C@H](CCC(N)=O)NC(=O)[C@H](Cc2cn(C)c3ccccc23)NC1=O
B4: Compound 119 (peptide)
peptide: Ac-SEFCI[Trp(1-Me)]QDWGEHRC[Sar]EGAK([AEEA-γGlu-AEEA-Gly-γGlu-C18 diacid])-NH2
modifications: disulfide 4-14
SMILES: CC[C@H](C)[C@@H]1NC(=O)[C@@H](NC(=O)[C@H](Cc2ccccc2)NC(=O)[C@H](CCC(=O)O)NC(=O)[C@H](CO)NC(C)=O)CSSC[C@@H](C(=O)N(C)CC(=O)N[C@@H](CCC(=O)O)C(=O)NCC(=O)N[C@@H](C)C(=O)N[C@@H](CCCCNC(=O)COCCOCCNC(=O)CC[C@H](NC(=O)COCCOCCNC(=O)CNC(=O)CC[C@H](NC(=O)CCCCCCCCCCCCCCCCC(=O)O)C(=O)O)C(=O)O)C(N)=O)NC(=O)[C@H](CCCNC(=N)N)NC(=O)[C@H](Cc2c[nH]cn2)NC(=O)[C@H](CCC(=O)O)NC(=O)CNC(=O)[C@H](Cc2c[nH]c3ccccc23)NC(=O)[C@H](CC(=O)O)NC(=O)[C@H](CCC(N)=O)NC(=O)[C@H](Cc2cn(C)c3ccccc23)NC1=O
notes: also called Compound No 119
B5: Compound 120 (peptide)
peptide: Ac-SEFCI[Trp(1-Me)]QEWGEHRC[Sar]EGAK([AEEA-γGlu-AEEA-Gly-γGlu-C18 diacid])-NH2
modifications: disulfide 4-14
SMILES: CC[C@H](C)[C@@H]1NC(=O)[C@@H](NC(=O)[C@H](Cc2ccccc2)NC(=O)[C@H](CCC(=O)O)NC(=O)[C@H](CO)NC(C)=O)CSSC[C@@H](C(=O)N(C)CC(=O)N[C@@H](CCC(=O)O)C(=O)NCC(=O)N[C@@H](C)C(=O)N[C@@H](CCCCNC(=O)COCCOCCNC(=O)CC[C@H](NC(=O)COCCOCCNC(=O)CNC(=O)CC[C@H](NC(=O)CCCCCCCCCCCCCCCCC(=O)O)C(=O)O)C(=O)O)C(N)=O)NC(=O)[C@H](CCCNC(=N)N)NC(=O)[C@H](Cc2c[nH]cn2)NC(=O)[C@H](CCC(=O)O)NC(=O)CNC(=O)[C@H](Cc2c[nH]c3ccccc23)NC(=O)[C@H](CCC(=O)O)NC(=O)[C@H](CCC(N)=O)NC(=O)[C@H](Cc2cn(C)c3ccccc23)NC1=O
B6: Compound 111 (peptide)
peptide: Ac-EGSAYCI[Trp(1-Me)]QDWGEHRC[Sar]EK[γGlu]K([AEEA-AEEA-γGlu-C18 diacid])-NH2
modifications: disulfide 6-16
SMILES: CC[C@H](C)[C@@H]1NC(=O)[C@@H](NC(=O)[C@H](Cc2ccc(O)cc2)NC(=O)[C@H](C)NC(=O)[C@H](CO)NC(=O)CNC(=O)[C@H](CCC(=O)O)NC(C)=O)CSSC[C@@H](C(=O)N(C)CC(=O)N[C@@H](CCC(=O)O)C(=O)N[C@@H](CCCCN)C(=O)N[C@@H](CCC(=O)N[C@@H](CCCCNC(=O)COCCOCCNC(=O)COCCOCCNC(=O)CC[C@H](NC(=O)CCCCCCCCCCCCCCCCC(=O)O)C(=O)O)C(N)=O)C(=O)O)NC(=O)[C@H](CCCNC(=N)N)NC(=O)[C@H](Cc2c[nH]cn2)NC(=O)[C@H](CCC(=O)O)NC(=O)CNC(=O)[C@H](Cc2c[nH]c3ccccc23)NC(=O)[C@H](CC(=O)O)NC(=O)[C@H](CCC(N)=O)NC(=O)[C@H](Cc2cn(C)c3ccccc23)NC1=O

Legend:
[1] = target: T1, Human C3 (Complement tech cat #A113c) (human, UniProt P01024 23-1663); experiment: cell-based or functional assay
T1 sequence (P01024 23-1663 limits assumed): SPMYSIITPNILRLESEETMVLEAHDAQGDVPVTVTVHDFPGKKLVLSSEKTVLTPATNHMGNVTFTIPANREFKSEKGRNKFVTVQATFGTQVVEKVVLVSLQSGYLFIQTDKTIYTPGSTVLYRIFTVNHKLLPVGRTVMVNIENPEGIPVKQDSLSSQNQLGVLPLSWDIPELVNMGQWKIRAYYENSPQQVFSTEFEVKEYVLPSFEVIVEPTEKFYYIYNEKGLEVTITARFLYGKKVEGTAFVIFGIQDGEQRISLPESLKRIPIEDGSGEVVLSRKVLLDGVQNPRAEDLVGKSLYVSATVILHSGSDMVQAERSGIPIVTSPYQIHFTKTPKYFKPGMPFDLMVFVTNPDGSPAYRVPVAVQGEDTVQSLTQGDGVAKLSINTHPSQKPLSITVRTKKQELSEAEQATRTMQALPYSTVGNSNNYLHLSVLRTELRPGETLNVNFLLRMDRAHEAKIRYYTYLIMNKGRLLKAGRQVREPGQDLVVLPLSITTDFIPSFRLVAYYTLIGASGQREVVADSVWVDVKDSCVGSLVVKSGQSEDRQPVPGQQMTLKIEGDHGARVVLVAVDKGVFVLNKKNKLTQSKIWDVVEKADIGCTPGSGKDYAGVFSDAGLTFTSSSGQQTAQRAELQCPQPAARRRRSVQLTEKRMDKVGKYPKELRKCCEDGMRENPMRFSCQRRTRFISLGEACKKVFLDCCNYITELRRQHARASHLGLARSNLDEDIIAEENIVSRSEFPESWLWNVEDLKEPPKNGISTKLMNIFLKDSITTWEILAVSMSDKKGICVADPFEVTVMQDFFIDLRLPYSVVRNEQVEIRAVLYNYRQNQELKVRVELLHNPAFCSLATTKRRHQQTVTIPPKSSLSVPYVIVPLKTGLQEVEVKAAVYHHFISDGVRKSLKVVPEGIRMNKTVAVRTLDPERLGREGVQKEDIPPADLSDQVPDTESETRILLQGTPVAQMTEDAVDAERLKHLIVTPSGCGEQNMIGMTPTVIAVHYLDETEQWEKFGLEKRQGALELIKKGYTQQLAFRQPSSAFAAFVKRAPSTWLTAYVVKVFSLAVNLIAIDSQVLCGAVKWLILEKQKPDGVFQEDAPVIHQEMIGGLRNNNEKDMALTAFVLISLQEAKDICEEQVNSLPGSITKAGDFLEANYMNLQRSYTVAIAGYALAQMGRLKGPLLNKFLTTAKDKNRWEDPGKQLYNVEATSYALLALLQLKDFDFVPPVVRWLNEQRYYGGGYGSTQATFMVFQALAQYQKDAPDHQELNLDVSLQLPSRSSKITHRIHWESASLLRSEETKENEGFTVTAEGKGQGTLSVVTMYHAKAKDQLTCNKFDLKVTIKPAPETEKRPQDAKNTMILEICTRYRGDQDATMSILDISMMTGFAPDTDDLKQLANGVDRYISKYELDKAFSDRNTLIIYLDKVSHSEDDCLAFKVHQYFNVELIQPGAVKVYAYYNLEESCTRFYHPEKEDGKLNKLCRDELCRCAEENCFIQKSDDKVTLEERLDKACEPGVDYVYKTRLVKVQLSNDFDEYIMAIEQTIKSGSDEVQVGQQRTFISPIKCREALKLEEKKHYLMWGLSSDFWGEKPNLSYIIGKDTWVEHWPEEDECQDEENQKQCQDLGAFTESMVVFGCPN

[2] = target: T1, Human C3 (Complement tech cat #A113c); experiment: SPR (Biacore T200), human C3 immobilised, peptide injected, 1:1 fit
Procedure: Surface plasmon resonance (SPR) was used to characterize peptides with respect to their binding affinity (Kd) for C3. Human C3 (Complement tech cat #A113c) was immobilised on individual flow cells of CM5 sensor chips (GE Healthcare) using standard amine coupling to a density of approximately 3000 resonance units (RU) in a buffer consisting of 10 mM phosphate pH 7.4, 150 mM NaCl, 0.05% Tween20.
For interaction experiments a multi-cycle experiment approach was used and performed using a BiacoreT200™ instrument (GE Healthcare) at 25° C. Peptides were injected in increasing concentration series (6-8 different concentrations) for 60-120 sat a flow rate of 30 µL/min in a buffer consisting of 10 mM Tris buffer at pH 7.4, with 150 mM NaCl and 0.05% Tween20. This was followed by a dissociation period for up to 10 min. The C3 surface was regenerated between runs by a 45 s injection of 3 M MgCl_2.

Binder | inhibition of hemolysis IC50 [1] [nM] | Kd [2] [nM]
Ac-SEFCI[Trp(1-Me)]QDWGEHRC[Sar]EGE-{AEEA-AEEA-K(γGlu-Gly-γGlu-17-carboxy-heptadecanoyl)-NH2} (disulfide 4-14) [Compound 123] | < 100 | 11
Ac-SEYCI[Trp(1-Me)]QDWGEHRC[Sar]EGE-{AEEA-AEEA-K(γGlu-Gly-γGlu-17-carboxy-heptadecanoyl)-NH2} (disulfide 4-14) [Compound 117] | < 250 | 24
Ac-SEYCI[Trp(1-Me)]QEWGEHRC[Sar]EGE-{AEEA-AEEA-K(γGlu-Gly-γGlu-17-carboxy-heptadecanoyl)-NH2} (disulfide 4-14) [Compound 125] | < 500 | 71
Ac-SEFCI[Trp(1-Me)]QEWGEHRC[Sar]EGE-{AEEA-AEEA-K(γGlu-Gly-γGlu-17-carboxy-heptadecanoyl)-NH2} (disulfide 4-14) [Compound 124] | < 100 | 31
B1 | < 250 | 30
B2 | < 100 | 11
B3 | < 500 | 63
B4 | < 100 | 9.8
B5 | < 250 | 28
B6 | < 100 | 8.2
